In publication PMC11045745, “NMR characterization of RNA binding property of the DEAD-box RNA helicase DDX3X and its implications for helicase activity”:

Target: DDX3X core WT (Homo sapiens, UniProt O00571 132-607)
Assay: NMR (13C-1H HMQC); AMPPNP; apparent affinity lower than E348Q with ATP; EMSA: 20 mM HEPES-NaOH pH 7.4, 100 mM NaCl, 5 mM DTT, 10% glycerol, 5 mM ATP/MgCl2 or ADP/EDTA, 100 nM RNA; NMR: 35 C (30 C for UA-12mer), 40-50 uM protein (HMQC) or 100 uM RNA (19F), 5 mM ATP/MgCl2; NMR buffer not given in the material
Settings: protein: recombinant; tags: His6-SUMO removed (Ulp1); two-Gly linker

Sequence of DDX3X core WT (O00571 132-607): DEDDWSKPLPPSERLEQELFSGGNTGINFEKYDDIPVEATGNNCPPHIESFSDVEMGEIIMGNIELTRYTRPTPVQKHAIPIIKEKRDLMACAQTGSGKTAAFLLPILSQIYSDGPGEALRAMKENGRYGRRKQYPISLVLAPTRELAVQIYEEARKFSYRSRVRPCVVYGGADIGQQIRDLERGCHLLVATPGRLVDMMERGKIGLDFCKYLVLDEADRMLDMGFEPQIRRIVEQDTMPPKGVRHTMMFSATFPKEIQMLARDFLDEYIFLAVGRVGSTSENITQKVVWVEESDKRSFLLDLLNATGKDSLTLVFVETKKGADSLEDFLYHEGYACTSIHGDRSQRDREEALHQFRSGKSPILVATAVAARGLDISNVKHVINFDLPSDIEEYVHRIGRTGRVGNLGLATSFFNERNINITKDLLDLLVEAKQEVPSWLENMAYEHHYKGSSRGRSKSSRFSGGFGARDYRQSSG

UUUUUUUUUU (ssRNA) [poly-U10]: binds.
